Consider 5 molecules from PMC2673437 (Nucleic Acids Research, 2009).

Where two headings read alike, the source gives them in different places. Where no end group is shown, it is not given here. The star is where a group is joined. Biotin = O=C1N[C@H]2[C@H](CS[C@H]2CCCCC(=O)*)N1 A value given as a limit tells only on which side of the number the result lay.

For experiment [1], the target named is T1, Bacillus stearothermophilus DnaB helicase (B. stearothermophilus, UniProt Q9X4C9 1-454).
T1 sequence (looked up): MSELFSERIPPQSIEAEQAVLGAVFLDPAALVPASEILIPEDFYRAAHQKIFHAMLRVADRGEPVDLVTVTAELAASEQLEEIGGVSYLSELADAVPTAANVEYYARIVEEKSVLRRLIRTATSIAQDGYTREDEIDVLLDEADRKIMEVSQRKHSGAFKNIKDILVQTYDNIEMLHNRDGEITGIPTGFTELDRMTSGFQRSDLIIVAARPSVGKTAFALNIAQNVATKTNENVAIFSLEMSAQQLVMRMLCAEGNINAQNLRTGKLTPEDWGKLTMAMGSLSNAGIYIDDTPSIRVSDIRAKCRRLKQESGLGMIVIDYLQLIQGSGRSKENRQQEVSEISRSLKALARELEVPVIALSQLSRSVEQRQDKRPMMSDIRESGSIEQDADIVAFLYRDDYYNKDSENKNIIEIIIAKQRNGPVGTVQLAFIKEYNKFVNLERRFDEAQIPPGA
Kind of experiment: SPR.

Experiment [2] concerns the target T1, Bacillus stearothermophilus DnaB …. Kind of experiment: SPR. The source holds these as a separate data set.

B1: DnaI-N132 (residues 1-132 of B. subtilis DnaI, C-terminal His6) (domain or fragment, UniProt P06567 1-132, looked up)
chain: MEPIGRSLQGVTGRPDFQKRLEQMKEKVMKDQDVQAFLKENEEVIDQKMIEKSLNKLYEYIEQSKNCSYCSEDENCNNLLEGYHPKLVVNGRSIDIEYYECPVKRKLDQQKKQQSLMKSMYIQQDLLGATFQ
In the case of B1, in experiment [1], the dissociation constant (Kd) came to 0.65 µM and the “stoichiometry N” value was 0.8 molecules per Bst DnaB subunit.

B2: DnaI-N106 (N-terminal 106 residues of B. subtilis DnaI) (domain or fragment, UniProt P06567 1-106, looked up)
chain: MEPIGRSLQGVTGRPDFQKRLEQMKEKVMKDQDVQAFLKENEEVIDQKMIEKSLNKLYEYIEQSKNCSYCSEDENCNNLLEGYHPKLVVNGRSIDIEYYECPVKRK
Consider B2, for which, in experiment [1], the dissociation constant Kd was 18.5 µM and the “stoichiometry N” value was 1.8 molecules per Bst DnaB subunit.

B3: DnaI-N123 (residues 1-123 of B. subtilis DnaI) (domain or fragment, UniProt P06567 1-123, looked up)
chain: MEPIGRSLQGVTGRPDFQKRLEQMKEKVMKDQDVQAFLKENEEVIDQKMIEKSLNKLYEYIEQSKNCSYCSEDENCNNLLEGYHPKLVVNGRSIDIEYYECPVKRKLDQQKKQQSLMKSMYIQ
On to B3, for which, in experiment [1], the dissociation constant Kd is 7.3 µM and the “stoichiometry N” value is 1.7 molecules per Bst DnaB subunit.
With Biotin-SGMEPIGRSLQGVTGRPDFQ [N-terminally biotinylated DnaI-N-peptide (DnaI residues 1-18, preceded by biotin-Ser-Gly)], the dissociation constant (Kd) in experiment [2] is at least 50 µM.
Turning to MEPIGRSLQGVTGRPDFQ [unmodified peptide corresponding to residues 1-18 of DnaI], in experiment [1], the dissociation constant Kd is above 140 µM.
